Three molecules from patent US20260035464A1 (STAIDSON BIOPHARMA, published 2026) can be followed below.

The target in experiment [1] is T1, human BTLA (Uniprot Q7Z6A9) expressed on cells (human, UniProt Q7Z6A9 31-289). The experiment in a line: cell-based or functional assay.
Experiment [2] has as its target T1, human BTLA (Uniprot Q7Z6A9) expressed …. The experiment in a line: flow cytometry blocking assay, Expi293-huBTLA cells pre-incubated with titrated SB2003-12, then His-mouse HVEM (concentration not given) and PE anti-His antibody. As for the experimental part: (§1) Cells were washed and stained with PE conjugated anti-His antibody (Thermofisher Scientific, CAT: TA150130). For antibody blocking assay, the exemplary humanized anti-BTLA antibody SB2003-12 was pre-incubated with the cell line followed by mouse HVEM and anti-His antibody staining. Cells were washed and fixed with 2% PFA and were analyzed by flow cytometry with Attune. MFI of HVEM staining was analyzed with FlowJo software.

For experiment [3] the target is unchanged. The experiment in a line: flow cytometry blocking assay on huBTLA-overexpressing Expi293 cells, antibody titrated, soluble human HVEM-mouse IgG2a Fc detected. As for the experimental part: (§2) Expi293 cells stably overexpressing huBTLA were incubated with chimeric anti-BTLA antibody 83F2 or 86B7 for 30 minutes at 4° C. The cells were washed, and then incubated with human HVEM-mouse IgG2a Fc recombinant protein (Acro Biosystems, cat #HVM-H5255) at […] concentration for 20 minutes at 4° C. The human HVEM bindings were detected by goat anti-mouse Alexa 488 secondary antibody (ThermoFisher, cat #A-11029). Cells were washed and acquired by flow cytometry with Attune. Data were analyzed with FlowJo software. BTLA binding is represented as MFI.
FACS based blocking assays of humanized anti-BTLA antibodies were performed as described above in Example 3.

Experiment [4] addresses T2, human BTLA extracellular domain with C-terminal 10xHis tag (human, UniProt Q7Z6A9 31-157).
T2 construct: also called HuBTLA-His; His-tag-huBTLA
T2 sequence: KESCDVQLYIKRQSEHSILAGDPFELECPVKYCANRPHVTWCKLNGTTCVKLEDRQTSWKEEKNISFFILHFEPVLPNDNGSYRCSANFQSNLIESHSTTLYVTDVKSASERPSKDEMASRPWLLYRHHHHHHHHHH
The experiment in a line: BLI (Octet RED96), antibody on AHC biosensor, His-tag-huBTLA in solution. As for the experimental part: (§3) The following kinetic assay was performed using anti-human IgG Fc capture (AHC) biosensors (ForteBio) in kinetics buffer (PBS, 0.1% Tween-20 and 1% bovine serum albumin): (a) antibody (2 μg/mL) for 300 sec, (b) baseline for 120 sec, (c) association with purified His-tag-huBTLA (2.5, 0.5 and 0 μg/mL) and His-tag-rhesus monkey BTLA (Sino Biologcal, cat #90250-C08H) (2.5, 0.5 and 0 μg/mL) for 420 sec and (d) dissociation for 1200 sec. Data fitting and analysis was performed with Octet data analysis software 8.0 (ForteBio) using a 1:1 binding model after Savitzky-Golay filtering.
(§4) Binding affinities (monovalent Kd) of humanized anti-BTLA antibodies were determined using Biolayer interferometry on the Octet RED96 instrument (ForteBio) as described above in Example 3, except for (c) association with His-tag-huBTLA ([…]) for 420 sec.

Experiment [5] has as its target T1, human BTLA (Uniprot Q7Z6A9) expressed …. The experiment in a line: flow cytometry on huBTLA-overexpressing Expi293 cells, MFI. As for the experimental part:
(§5) Expi293 cells stably overexpressing huBTLA were incubated with the chimeric anti-BTLA antibodies 83F2 or 86B7 in PBS containing 0.5% BSA, 1 mM EDTA, and 0.1% sodium azide (FACS buffer) for 30 minutes at 4° C. The cells were washed, and then incubated with 10 nM phycoerythrin (PE) conjugated anti-Human Fc Ab (BioLegend, cat #409304) for 20 minutes at 4° C. Cells were washed and then analyzed by flow cytometry with Attune (ThermoFisher Scientific). Data were analyzed with FlowJo software. Antibody binding is represented as median fluorescence intensity (MFI).
FACS based binding assays of humanized anti-BTLA antibodies were performed as described above in Example 3.

The target in experiment [6] is T3, extracellular domain of human BTLA with FAS, expressed on Jurkat cells (human, UniProt Q7Z6A9 31-157; P25445 174-335, limits assumed).
T3 sequence (looked up): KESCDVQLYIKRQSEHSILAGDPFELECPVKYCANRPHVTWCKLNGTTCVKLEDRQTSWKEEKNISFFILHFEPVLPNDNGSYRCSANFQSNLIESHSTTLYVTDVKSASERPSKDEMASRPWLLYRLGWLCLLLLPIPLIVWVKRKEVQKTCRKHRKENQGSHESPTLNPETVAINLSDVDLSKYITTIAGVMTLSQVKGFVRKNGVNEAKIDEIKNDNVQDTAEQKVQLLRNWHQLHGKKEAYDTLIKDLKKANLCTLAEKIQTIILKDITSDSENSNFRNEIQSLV
The experiment in a line: cell-based or functional assay.

In experiment [7] the target is T2, human BTLA extracellular domain with …. The experiment in a line: BLI (Octet RED96), antibody on AHC biosensor, His-tag-huBTLA in solution; column head prints nM, but Koff/Kon shows the values are in M. As for the experimental part:
as §3, §4

For experiment [8], the target named is T1, human BTLA (Uniprot Q7Z6A9) expressed …. The experiment in a line: flow cytometry, His-mouse HVEM on Expi293-huBTLA cells, PE anti-His antibody, MFI. As for the experimental part:
as §1

Experiment [9] has the same target. The experiment in a line: flow cytometry blocking on huBTLA-overexpressing Expi293 cells; competitor human HVEM-mouse IgG2a Fc. As for the experimental part: as §2
For experiment [10] the target is unchanged. The experiment in a line: flow cytometry on Expi293 cells stably overexpressing huBTLA, PE anti-human Fc.
From the text: To examine the binding of the chimeric anti-BTLA antibodies to huBTLA overexpressing cells, Expi293 cells stably overexpressing huBTLA were used to perform FACS analysis. Briefly, the coding sequence of huBTLA (Uniprot, Q7Z6A9) was cloned into a lentiviral vector and the recombinant virus was packaged according to the instruction of the virus packaging kit (Lenti-X™ Packaging Single Shots, Cat #631275, Takada). The Expi293 cells were transduced with the recombinant virus.
as §5

The target of experiment [11] is T4, rhesus monkey BTLA extracellular domain protein with His tag (Sino Biological, cat #90250-C08H) (rhesus monkey, UniProt G7MKA9 31-157).
T4 construct: extracellular domain; Bought protein; also called His-tag-rhesus monkey BTLA; not shown: His tag
T4 sequence: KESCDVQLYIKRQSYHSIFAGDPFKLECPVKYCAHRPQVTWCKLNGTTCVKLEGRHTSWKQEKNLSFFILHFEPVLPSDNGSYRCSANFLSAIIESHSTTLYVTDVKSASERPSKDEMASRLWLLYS
The experiment in a line: ELISA, rhesus monkey BTLA coated at 0.333 ug/mL, anti-human IgG Fc-AP detection. As for the experimental part:
(§6) BTLA binding of purified recombinant chimeric antibodies by ELISA: The huBTLA and rhesus monkey BTLA antigen binding ELISA was performed on the purified recombinant chimeric antibodies. Briefly, 384-well, clear flat bottom high binding plates (Corning, cat #3700) were coated overnight at 4° C. with 0.333 μg/mL of huBTLA or rhesus monkey BTLA in PBS. The following purified process was performed as described in ELISA binding assay in Example 2, except that the secondary antibody was goat anti human IgG Fc-AP (Southern Biotech, cat #2014-04).

Experiment [12] has as its target T1, human BTLA (Uniprot Q7Z6A9) expressed …. The experiment in a line: cell-based or functional assay. This is another data set of the same source.
The target of experiment [13] is T4, rhesus monkey BTLA extracellular domain …. The experiment in a line: ELISA, plate coated with rhesus monkey BTLA, detection with goat anti-human IgG Fc-AP, OD405. As for the experimental part:
as §6

Experiment [14] addresses T5, huBTLA as coated in the binding ELISA of Example 3 (tag not stated) (human, UniProt Q7Z6A9 31-157).
T5 construct: Detection was with anti-human IgG Fc
T5 sequence: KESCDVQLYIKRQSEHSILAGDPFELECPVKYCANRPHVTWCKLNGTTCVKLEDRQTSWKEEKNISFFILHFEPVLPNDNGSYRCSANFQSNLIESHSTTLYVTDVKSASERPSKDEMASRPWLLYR
The experiment in a line: ELISA, huBTLA coated at 0.333 ug/mL, anti-human IgG Fc-AP detection. As for the experimental part:
as §6

The target of experiment [15] is T2, human BTLA extracellular domain with …. The experiment in a line: BLI (Octet RED96), antibody captured on AHC biosensor, His-tag-huBTLA in solution, 1:1 model. As for the experimental part:
as §3

The target in experiment [16] is T6, human BTLA extracellular domain with C-terminal mouse IgG2a Fc tag (human; mouse, UniProt Q7Z6A9 31-157).
T6 construct: also called huBTLA with mIgG2a Fc tag; not shown: mouse IgG2a Fc, C-terminal
T6 sequence: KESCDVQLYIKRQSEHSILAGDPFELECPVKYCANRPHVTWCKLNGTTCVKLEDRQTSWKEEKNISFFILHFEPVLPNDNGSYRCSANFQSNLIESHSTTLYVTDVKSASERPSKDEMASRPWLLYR
The experiment in a line: blocking ELISA, huBTLA-mIgG2a Fc coated; competitor huHVEM-His (2 ug/ml). As for the experimental part: HVEM blocking by purified recombinant chimeric antibodies by ELISA: Human HVEM (huHVEM) blocking ELISA was performed on purified recombinant chimeric anti-BTLA antibodies. Briefly, 384-well, clear flat bottom high binding plates (Corning, cat #3700) were coated overnight at 4° C. with 0.333 μg/mL purified huBTLA with mIgG2a Fc tag in PBS (coating solution). After removing the coating solution, the plates were blocked by adding blocking buffer and incubated at 37° C. for 1 hour. Plates were then washed 3 times with wash buffer. Serial dilution of purified chimeric antibodies in PBS were added to individual well followed by incubation at 37° C. for 1 hour. Plates were washed 3 times with wash buffer. Then 30 μL per well of 2 μg/ml human HVEM with His tag (Sino Biological, cat #10334-H08H) in assay buffer was added into the reaction and incubated for 1 hour. Plates were washed 3 times with wash buffer. Then 30 μL per well of mouse anti-his-AP (Southern Biotech, cat: 4603-04) at 1:500 dilution in ELISA diluent was added, and incubated at 37° C. for 30 min, then the plates were washed 5 times with wash buffer and developed for 30 minutes with 30 μL per well of pNPP substrate. Plates were analyzed with a Bio-TEK at 405 nm. The blocking IC₅₀ value represents the antibody concentration that inhibited 50% of huHVEM binding to coated human BTLA.

The target in experiment [17] is T5, huBTLA as coated in the binding ELISA …. The experiment in a line: ELISA, plate coated with huBTLA, detection with goat anti-human IgG Fc-AP, OD405. As for the experimental part:
as §6

B1: humanized anti-BTLA antibody SB2003-12 (antibody, V domains shown)
VH: QVTLKESGPTLVKPTQTLTLTCTFSGFSLSTFGMGVSWIRQPPGKALEWLAHIYWDDDKRFNPSLKSRLTITKDTSKNQVVLTMTNMDPVDTATYYCAHGNWDGETYFDYWGQGTLVTVSS
VL: DVVMTQSPLSLPVTLGQPASISCKSTQSLLDSDGKTYLNWLQQRPGQSPRSLIYLVSKLDSGVPDRFSGSGSGTDFTLKISRVEAEDVGVYYCWQGTHFPWTFGQGTKVEIK
With B1, the “EC50 of recovery of IL-2 production, Raji-HVEM/primary human T cell coculture” value in experiment [1] was 4.91 nM. The “IC50 (read off the curve)” value in experiment [2] is around 2 nM. For the same molecule, in [3], the “IC50 (read off the curve)” value was around 0.4 nM. In [4], this molecule registered a koff of 8.05e-05 s⁻¹ and a kon of 418000 M⁻¹ s⁻¹. For the same molecule, the concentration for a half-maximal effect (EC50 (read off the curve)) in experiment [5] is around 0.8 nM. For the same molecule, the “EC50 of inhibition of huHVEM-Fc-induced apoptosis, Jurkat-huBTLA-FAS cells (ATP luminescence)” value in experiment [6] was determined as 0.0614 nM. Further, the Kd in experiment [7] amounted to 0.198 nM.

B2: His-mouse HVEM protein (Sino Biological, cat #10567-M03H) (ligand, UniProt Q80WM9 39-206, looked up)
chain: QPSCRQEEFLVGDECCPMCNPGYHVKQVCSEHTGTVCAPCPPQTYTAHANGLSKCLPCGVCDPDMGLLTWQECSSWKDTVCRCIPGYFCENQDGSHCSTCLQHTTCPPGQRVEKRGTHDQDTVCADCLTGTFSLGGTQEECLPWTNCSAFQQEVRRGTNSTDTTCSSQ
notes: Bought protein; also called musHVEM; not shown: His tag
As for B2, the concentration for a half-maximal effect (EC50 (read off the curve)) in experiment [8] is around 2 nM.

B3: chimeric anti-BTLA antibody 83F2 (antibody, V domains shown)
VH: QVQFQQSGAELARPGASVKLSCKASGYTFTDFWIQWVKQRPGQGLEWIGTIYPGDGDTRENQKFKGRATLTADKSSSTAYMQLSSLESDDSAVYYCARGNGNSWFAYWGQGTLVTVSA
VL: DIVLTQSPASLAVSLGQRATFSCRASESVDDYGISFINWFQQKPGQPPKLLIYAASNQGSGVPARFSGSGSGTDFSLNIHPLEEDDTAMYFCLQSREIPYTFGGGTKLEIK
With B3, the IC50 was 0.656 nM in experiment [9] and 1.24 nM in experiment [16]. Also, the EC50 stood at 1.85 nM in [10], 0.0542 nM in [11] and 0.0564 nM in [14]. Besides, the “EC50 of recovery of IL-2 production, Raji-HVEM/Jurkat-BTLA coculture” value in experiment [12] came to 1.85 nM. Further, the “EC50 (read off the curve)” value in experiment [13] and in experiment [17] was around 0.4 nM in each case. This molecule showed a Kd in experiment [15] of 2.91 nM. Also, the dissociation rate constant (koff) in experiment [15] is 0.000548 s⁻¹. The on-rate (kon) in experiment [15] was 188000 M⁻¹ s⁻¹.
